Results: patent publication US20040235732A1, “Method for modulating angiogenesis using prokineticin receptor antagonists” (published 2004)

T1: human prokineticin receptor 1 (PKR1) (human)
T1 chain: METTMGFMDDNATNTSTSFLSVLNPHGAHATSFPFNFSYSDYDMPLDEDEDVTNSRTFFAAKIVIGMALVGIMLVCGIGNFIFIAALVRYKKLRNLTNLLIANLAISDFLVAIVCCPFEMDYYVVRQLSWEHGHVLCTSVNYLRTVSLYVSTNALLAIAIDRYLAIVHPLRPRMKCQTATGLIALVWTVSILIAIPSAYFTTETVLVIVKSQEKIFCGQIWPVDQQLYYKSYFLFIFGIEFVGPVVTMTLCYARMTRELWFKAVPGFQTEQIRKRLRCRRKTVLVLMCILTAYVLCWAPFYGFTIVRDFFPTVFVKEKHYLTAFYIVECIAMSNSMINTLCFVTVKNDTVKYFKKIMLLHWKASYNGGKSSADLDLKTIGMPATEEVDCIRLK


Experiments:
Test in all cases: cell-based or functional assay
[1] = target: human prokineticin receptor 2 (PKR2) (human)
Chain of human prokineticin receptor 2 (PKR2) (human) (chain, as listed by the source): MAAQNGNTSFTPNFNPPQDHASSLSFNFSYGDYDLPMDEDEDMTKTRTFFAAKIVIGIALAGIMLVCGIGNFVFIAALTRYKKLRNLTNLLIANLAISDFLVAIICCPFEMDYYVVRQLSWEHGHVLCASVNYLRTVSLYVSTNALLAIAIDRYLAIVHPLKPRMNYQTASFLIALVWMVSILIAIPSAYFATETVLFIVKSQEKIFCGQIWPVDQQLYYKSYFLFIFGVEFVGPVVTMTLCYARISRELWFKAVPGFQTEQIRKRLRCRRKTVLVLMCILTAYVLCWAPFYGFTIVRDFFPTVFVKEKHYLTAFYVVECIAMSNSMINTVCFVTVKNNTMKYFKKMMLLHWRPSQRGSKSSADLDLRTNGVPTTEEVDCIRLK

[2] = target: T1, human prokineticin receptor 1 (PKR1)
[3] = target: human prokineticin receptor 2 (PKR2) (human); remark: listed apart in the source
[4] = target: T1, human prokineticin receptor 1 (PKR1)

Row | Binder | Antagonistic Activity of PK mutants (Calcium Mobilization Assay), nM; ligand PK1 [1] | Antagonistic Activity of PK mutants (Calcium Mobilization Assay), nM; ligand PK2 [1] | Antagonistic Activity of PK mutants (Calcium Mobilization Assay), nM; ligand PK1 [2] | Antagonistic Activity of PK mutants (Calcium Mobilization Assay), nM; ligand PK2 [2] | dissociation constant (Kb), Schild analysis of calcium mobilization [3] | dissociation constant (Kb), Schild analysis of calcium mobilization [4]
1 | MV PK1 (ligand) MVITGACERDVQCGAGTCCAISLWLRGLRMCTPLGREGEECHPGSHKVPFFRKRKHHTCPCLPNLLCSRFPDGRYRCSMDLKNINF | 16 nM | 29 nM | 6 nM | 110 nM | 37.8 nM | 116 nM
2 | Met PK1 (ligand) MAVITGACERDVQCGAGTCCAISLWLRGLRMCTPLGREGEECHPGSHKVPFFRKRKHHTCPCLPNLLCSRFPDGRYRCSMDLKNINF | 15 nM | 30 nM | 9 nM | 90 nM | 48.9 nM | 261 nM
